The record followed here is patent publication US10472401B2, “Peptides and combination of peptides for use in immunotherapy against ovarian cancer and other cancers” (immatics biotechnologies GmbH, priority 2015, dated 2019).

In this experiment the target is HLA-A*02:01 (Homo sapiens, UniProt P04439, D140Y/D185E/D98H/E176V/E277Q/G131W/G231S/I119V/I121R/I166T/I218V/L300P/L318F/N151K/N90K/P208A/P217A/Q86G/Q94H/R138H/R169H/T345S). The experiment in a line: MHC binding assay (UV-ligand exchange, ELISA of stabilized MHC complexes). Particulars: MHC class I binding score; binding to HLA-A*02:01 ranged by peptide exchange yield (UV-ligand exchange, ELISA). A digest of the protocol:
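Binding scored as exchange yield, detected via β2m of stabilized complexes in an HRP/TMB ELISA read at 450 nm after streptavidin capture of 100-fold diluted monomers for 1 h at 37 °C. Complexes came from UV irradiation cleaving a photolabile peptide, exchanged for the candidate.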
In general terms: ELISA stands for enzyme-linked immunosorbent assay.
As for “394 (LLAVIGGLVYL; listed as Homo sapiens) [compound 394]”, the Peptide exchange entry is “″+++″ (≥50% = +++)”. As for “395 (ALALGGIAVV; listed as Homo sapiens) [compound 395]”, the entry is “″++++″ (≥75% = ++++)”; as for “396 (ALLPDLPAL; listed as Homo sapiens) [compound 396]”, “″+++″ (≥50% = +++)”. For the substance “397 (YLFGERLLEC; listed as Homo sapiens) [compound 397]”, the Peptide exchange entry is reported as “″+++″ (≥50% = +++)”. As to “398 (KLLEEDGTIITL; listed as Homo sapiens) [compound 398]”, the Peptide exchange result is on record as “″++″ (≥20% = ++)”. “399 (YLFEPLYHV; listed as Homo sapiens) [compound 399]”: the Peptide exchange result is given as “″+++″ (≥50% = +++)”. As for “400 (SLLTEQDLWTV; listed as Homo sapiens) [compound 400]”, the Peptide exchange result is given as “″++″ (≥20% = ++)”. As for “401 (ILLDDTGLAYI; listed as Homo sapiens) [compound 401]”, the entry is “″+++″ (≥50% = +++)”; as for “402 (VLFSGALLGL; listed as Homo sapiens) [compound 402]”, “″++″ (≥20% = ++)”; as for “403 (KLYDRILRV; listed as Homo sapiens) [compound 403]”, “″++″ (≥20% = ++)”. As for “405 (ALYDVFLEV; listed as Homo sapiens) [compound 405]”, the entry is “″++″ (≥20% = ++)”. On to “407 (YLMDLINFL; listed as Homo sapiens) [compound 407]”, for which the Peptide exchange entry is listed as “″+++″ (≥50% = +++)”.

In the case of “408 (VLDDSIYLV; listed as Homo sapiens) [compound 408]”, the Peptide exchange entry is on record as “″++″ (≥20% = ++)”.

As for “409 (LLDAMNYHL; listed as Homo sapiens) [compound 409]”, the Peptide exchange entry is “″++″ (≥20% = ++)”. As for “412 (YLDDLNEGVYI; listed as Homo sapiens) [compound 412]”, the entry is “″++″ (≥20% = ++)”. With “426 (RLADKSVLV; listed as Homo sapiens) [compound 426]” the entry was “″+++″ (≥50% = +++)”. With “427 (ALLPLSPYL; listed as Homo sapiens) [compound 427]” the entry was “″+++″ (≥50% = +++)”; with “428 (KLGHTDILVGV; listed as Homo sapiens) [compound 428]”, “″++″ (≥20% = ++)”. Take “429 (GLVNDLARV; listed as Homo sapiens) [compound 429]”: the Peptide exchange result is listed as “″++″ (≥20% = ++)”. With “430 (HLYSSIEHLTT; listed as Homo sapiens) [compound 430]” the entry was “″+++″ (≥50% = +++)”; with “431 (SLVNVVPKL; listed as Homo sapiens) [compound 431]”, “″++″ (≥20% = ++)”. With “432 (TLIEESAKV; listed as Homo sapiens) [compound 432]” the entry was “″++″ (≥20% = ++)”. With “433 (AMLNEPWAV; listed as Homo sapiens) [compound 433]” the entry was “″+++″ (≥50% = +++)”; with “434 (KVSNSGITRV; listed as Homo sapiens) [compound 434]”, “″++″ (≥20% = ++)”; with “436 (HLAEVSAEV; listed as Homo sapiens) [compound 436]”, “″+++″ (≥50% = +++)”. On to “437 (SMAPGLVIQAV; listed as Homo sapiens) [compound 437]”, for which the Peptide exchange entry is on record as “″+++″ (≥50% = +++)”.

Regarding “438 (KLLPLAGLYL; listed as Homo sapiens) [compound 438]”, the Peptide exchange result is listed as “″++++″ (≥75% = ++++)”. “439 (YLLQEIYGI; listed as Homo sapiens) [compound 439]”: the Peptide exchange entry was “″+++″ (≥50% = +++)”. With “440 (ALADGVTMQV; listed as Homo sapiens) [compound 440]” the entry was “″++″ (≥20% = ++)”. As to “441 (ALLENPKMEL; listed as Homo sapiens) [compound 441]”, the Peptide exchange result is “″+++″ (≥50% = +++)”. As for “442 (GLLGGGGVLGV; listed as Homo sapiens) [compound 442]”, the entry is “″+++″ (≥50% = +++)”; as for “444 (GLLRDEALAEV; listed as Homo sapiens) [compound 444]”, “″+++″ (≥50% = +++)”; as for “446 (QLIPALAKV; listed as Homo sapiens) [compound 446]”, “″+++″ (≥50% = +++)”.

Turning to “447 (QLVPALAKV; listed as Homo sapiens) [compound 447]”, the Peptide exchange result is listed as “″++″ (≥20% = ++)”.

For “448 (NLLETKLQL; listed as Homo sapiens) [compound 448]”, the Peptide exchange result is reported as “″+++″ (≥50% = +++)”. In the case of “449 (KLAEGLDIQL; listed as Homo sapiens) [compound 449]”, the Peptide exchange result is recorded as “″+++″ (≥50% = +++)”. With “450 (FMIDASVHPTL; listed as Homo sapiens) [compound 450]” the entry was “″+++″ (≥50% = +++)”. With “451 (LLLLDTVTMQV; listed as Homo sapiens) [compound 451]” the entry was “″++″ (≥20% = ++)”.

Turning to “452 (ILLEHGADPNL; listed as Homo sapiens) [compound 452]”, the Peptide exchange result is listed as “″+++″ (≥50% = +++)”.

Regarding “453 (KLLEATSAV; listed as Homo sapiens) [compound 453]”, the Peptide exchange result is listed as “″++″ (≥20% = ++)”.

Regarding “454 (KLPPPPPQA; listed as Homo sapiens) [compound 454]”, the Peptide exchange entry is listed as “″+++″ (≥50% = +++)”.

On to “455 (SLLKEPQKVQL; listed as Homo sapiens) [compound 455]”, for which the Peptide exchange result is “″++″ (≥20% = ++)”.

On to “456 (LLIGHLERV; listed as Homo sapiens) [compound 456]”, for which the Peptide exchange entry was “″+++″ (≥50% = +++)”.

Take “457 (SLLPGNLVEKV; listed as Homo sapiens) [compound 457]”: the Peptide exchange entry is recorded as “″+++″ (≥50% = +++)”. With “458 (SLIDKLYNI; listed as Homo sapiens) [compound 458]” the entry was “″++″ (≥20% = ++)”; with “459 (ALITEVVRL; listed as Homo sapiens) [compound 459]”, “″++″ (≥20% = ++)”; with “461 (VMFRTPLASV; listed as Homo sapiens) [compound 461]”, “″++″ (≥20% = ++)”.

As for “462 (KLAKQPETV; listed as Homo sapiens) [compound 462]”, the Peptide exchange result is given as “″+++″ (≥50% = +++)”. For “463 (SLVESHLSDQLTL; listed as Homo sapiens) [compound 463]”, the Peptide exchange entry is “″+++″ (≥50% = +++)”.

As to “464 (ALNDCIYSV; listed as Homo sapiens) [compound 464]”, the Peptide exchange result is on record as “″+++″ (≥50% = +++)”. With “465 (QLCDLNAEL; listed as Homo sapiens) [compound 465]” the entry was “″+++″ (≥50% = +++)”. As for “466 (VLIANLEKL; listed as Homo sapiens) [compound 466]”, the entry is “″++++″ (≥75% = ++++)”; as for “467 (FLAKDFNFL; listed as Homo sapiens) [compound 467]”, “″+++″ (≥50% = +++)”.

In the case of “468 (YLRSVGDGETV; listed as Homo sapiens) [compound 468]”, the Peptide exchange entry was “″+++″ (≥50% = +++)”.

For the substance “469 (YLASDEITTV; listed as Homo sapiens) [compound 469]”, the Peptide exchange entry is on record as “″+++″ (≥50% = +++)”.

In the case of “471 (YLYNNMIAKI; listed as Homo sapiens) [compound 471]”, the Peptide exchange entry was “″+++″ (≥50% = +++)”. As for “472 (KLLEVSDDPQV; listed as Homo sapiens) [compound 472]”, the entry is “″+++″ (≥50% = +++)”; as for “473 (AMATESILHFA; listed as Homo sapiens) [compound 473]”, “″+++″ (≥50% = +++)”; as for “474 (YLDPALELGPRNV; listed as Homo sapiens) [compound 474]”, “″+++″ (≥50% = +++)”.

In the case of “475 (LLLNEEALAQI; listed as Homo sapiens) [compound 475]”, the Peptide exchange entry is given as “″+++″ (≥50% = +++)”. “476 (ALMERTGYSMV; listed as Homo sapiens) [compound 476]”: the Peptide exchange entry is recorded as “″+++″ (≥50% = +++)”. With “477 (ALLPASGQIAL; listed as Homo sapiens) [compound 477]” the entry was “″+++″ (≥50% = +++)”; with “478 (YLLHEKLNL; listed as Homo sapiens) [compound 478]”, “″+++″ (≥50% = +++)”. As for “479 (SLFGNSGILENV; listed as Homo sapiens) [compound 479]”, the entry is “″+++″ (≥50% = +++)”; as for “480 (ALLEDSCHYL; listed as Homo sapiens) [compound 480]”, “″+++″ (≥50% = +++)”; as for “481 (GLIEDYEALL; listed as Homo sapiens) [compound 481]”, “″+++″ (≥50% = +++)”. Turning to “484 (SLIEKVTQL; listed as Homo sapiens) [compound 484]”, the Peptide exchange result was “″+++″ (≥50% = +++)”. As for “485 (NVPDSFNEV; listed as Homo sapiens) [compound 485]”, the entry is “″+++″ (≥50% = +++)”; as for “486 (AVMESIQGV; listed as Homo sapiens) [compound 486]”, “″+++″ (≥50% = +++)”; as for “487 (LLINSVFHV; listed as Homo sapiens) [compound 487]”, “″+++″ (≥50% = +++)”.
